Where a chain is given by its changes, count along the chain named. Names and notes keep the numbering of the source.
T1: histidine-tagged human SORT1 (R&D Systems) (human, UniProt Q99523 78-755)
T1 construct: Bought recombinant protein; also called His-tagged human SORT1; not shown: histidine tag
T1 sequence: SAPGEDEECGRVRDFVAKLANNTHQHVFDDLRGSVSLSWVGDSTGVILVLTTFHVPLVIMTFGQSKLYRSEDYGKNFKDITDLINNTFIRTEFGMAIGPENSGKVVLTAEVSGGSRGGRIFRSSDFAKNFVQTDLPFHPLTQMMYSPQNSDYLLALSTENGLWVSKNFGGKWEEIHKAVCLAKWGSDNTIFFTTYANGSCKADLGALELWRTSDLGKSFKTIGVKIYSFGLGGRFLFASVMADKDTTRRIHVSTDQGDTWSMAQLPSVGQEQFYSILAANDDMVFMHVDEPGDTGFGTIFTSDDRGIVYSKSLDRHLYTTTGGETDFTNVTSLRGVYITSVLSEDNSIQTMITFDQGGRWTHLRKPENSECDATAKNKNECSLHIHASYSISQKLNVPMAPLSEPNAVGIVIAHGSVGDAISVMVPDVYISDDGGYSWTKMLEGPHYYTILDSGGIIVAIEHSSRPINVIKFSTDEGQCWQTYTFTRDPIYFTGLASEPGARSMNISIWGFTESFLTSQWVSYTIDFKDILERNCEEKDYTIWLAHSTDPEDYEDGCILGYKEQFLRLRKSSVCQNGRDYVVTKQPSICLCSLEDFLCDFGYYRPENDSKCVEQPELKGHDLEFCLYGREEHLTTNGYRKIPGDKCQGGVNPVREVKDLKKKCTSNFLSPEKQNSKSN

T2: human Sortilin (SORT1), full-length untagged, expressed on cells (human, UniProt Q99523 78-831)
T2 sequence: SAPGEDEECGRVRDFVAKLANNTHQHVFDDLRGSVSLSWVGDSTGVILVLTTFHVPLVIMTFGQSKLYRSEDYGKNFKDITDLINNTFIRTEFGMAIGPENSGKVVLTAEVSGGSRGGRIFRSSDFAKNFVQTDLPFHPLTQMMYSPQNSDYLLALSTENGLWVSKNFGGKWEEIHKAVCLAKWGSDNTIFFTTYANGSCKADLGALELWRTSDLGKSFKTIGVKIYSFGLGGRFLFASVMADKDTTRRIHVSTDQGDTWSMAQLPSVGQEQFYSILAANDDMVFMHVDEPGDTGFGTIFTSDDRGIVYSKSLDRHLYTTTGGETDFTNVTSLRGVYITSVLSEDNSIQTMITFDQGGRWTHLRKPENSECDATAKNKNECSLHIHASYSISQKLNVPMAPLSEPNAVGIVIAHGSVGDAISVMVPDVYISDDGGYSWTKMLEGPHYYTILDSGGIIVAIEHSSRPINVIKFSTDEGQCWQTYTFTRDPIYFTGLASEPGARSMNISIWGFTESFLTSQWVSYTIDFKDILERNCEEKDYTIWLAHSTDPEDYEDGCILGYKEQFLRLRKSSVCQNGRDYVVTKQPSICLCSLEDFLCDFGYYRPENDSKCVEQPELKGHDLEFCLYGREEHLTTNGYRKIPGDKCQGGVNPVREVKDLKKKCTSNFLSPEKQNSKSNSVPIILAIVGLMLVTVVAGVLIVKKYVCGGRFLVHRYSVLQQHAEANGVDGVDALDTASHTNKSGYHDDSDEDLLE

B1: S-60-15 [N33 (wt)] huIgG1 LALAPS (antibody, V domains shown)
VH: QVQLQESGPGLVKPSETLSLTCAVSGYSISSGYYWGWIRQPPGKGLEWIGTIYHSGSTYYNPSLKSRVTISVDTSKNQFSLKLSSVTAADTAVYYCARQGSIKQGYYGMDVWGQGTTVTVSS
VL: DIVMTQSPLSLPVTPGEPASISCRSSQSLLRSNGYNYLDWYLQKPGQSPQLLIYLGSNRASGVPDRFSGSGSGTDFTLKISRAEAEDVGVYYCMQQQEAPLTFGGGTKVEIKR
notes: huIgG1 with L234A/L235A/P331S (LALAPS)
B2: S-60-15.2 [N33S] (antibody, human IgG1, kappa, L234A L235A, V domains shown)
VH: B1 VH
VL: DIVMTQSPLSLPVTPGEPASISCRSSQSLLRSSGYNYLDWYLQKPGQSPQLLIYLGSNRASGVPDRFSGSGSGTDFTLKISRAEAEDVGVYYCMQQQEAPLTFGGGTKVEIKR
notes: huIgG1 LALAPS
B3: S-60-15.10 [N33E] (antibody, human IgG1, kappa, L234A L235A, V domains shown)
VH: B1 VH
VL: B2 VL with S33E
notes: huIgG1 LALAPS
B4: S-60-15.8 [N33Q] (antibody, human IgG1, kappa, L234A L235A, V domains shown)
VH: B1 VH
VL: B2 VL with S33Q
notes: huIgG1 LALAPS
B5: S-60-15.17 [N33L] (antibody, human IgG1, kappa, L234A L235A, V domains shown)
VH: B1 VH
VL: B2 VL with S33L
notes: huIgG1 LALAPS
B6: S-60-15.14 [N33V] (antibody, human IgG1, kappa, L234A L235A, V domains shown)
VH: B1 VH
VL: B2 VL with S33V
notes: huIgG1 LALAPS
B7: S-60-15.12 [N33F] (antibody, human IgG1, kappa, L234A L235A, V domains shown)
VH: B1 VH
VL: B2 VL with S33F
notes: huIgG1 LALAPS
B8: S-60-15.15 [N33A] (antibody, human IgG1, kappa, L234A L235A, V domains shown)
VH: B1 VH
VL: B2 VL with S33A
notes: huIgG1 LALAPS
B9: S-60-15.4 [N33R] (antibody, human IgG1, kappa, L234A L235A, V domains shown)
VH: B1 VH
VL: B2 VL with S33R
notes: huIgG1 LALAPS
B10: S-60-15.7 [N33K] (antibody, human IgG1, kappa, L234A L235A, V domains shown)
VH: B1 VH
VL: B2 VL with S33K
notes: huIgG1 LALAPS
B11: S-60-15.9 [N33Y] (antibody, human IgG1, kappa, L234A L235A, V domains shown)
VH: B1 VH
VL: B2 VL with S33Y
notes: huIgG1 LALAPS
B12: S-60-15.6 [N33H] (antibody, human IgG1, kappa, L234A L235A, V domains shown)
VH: B1 VH
VL: B2 VL with S33H
notes: huIgG1 LALAPS
B13: S-60-15.3 [N33G] (antibody, human IgG1, kappa, L234A L235A, V domains shown)
VH: B1 VH
VL: B2 VL with S33G
notes: huIgG1 LALAPS
B14: S-60-15.16 [N33M] (antibody, human IgG1, kappa, L234A L235A, V domains shown)
VH: B1 VH
VL: B2 VL with S33M
notes: huIgG1 LALAPS
B15: S-60-15.13 [N33I] (antibody, human IgG1, kappa, L234A L235A, V domains shown)
VH: B1 VH
VL: B2 VL with S33I
notes: huIgG1 LALAPS
B16: S-60-15.11 [N33W] (antibody, human IgG1, kappa, L234A L235A, V domains shown)
VH: B1 VH
VL: B2 VL with S33W
notes: huIgG1 LALAPS
B17: S-60-1 (antibody, IgG1, V domains shown)
VH: B1 VH with G32V, Y33R, T51S
VL: not shown
notes: Tested on the huIgG1 (WT) backbone
B18: S-60-7 (antibody, IgG1, V domains shown)
VH: B1 VH
VL: not shown
notes: Tested on the huIgG1 (WT) backbone; also called S-60-5; S-60-6
B19: S-60-8 (antibody, IgG1, V domains shown)
VH: B1 VH
VL: not shown
notes: as for B17
B20: S-60-4 (antibody, IgG1, V domains shown)
VH: B1 VH
VL: DIVMTQSPLSLPVTPGESASISCRSSQGLLRSNGYNYLDWYLQKPGQSPQLLIYLGSNRASGVPDRFSGSGSGTDFTLKISRVEAEDVGVYYCMQQQETPLTFGGGTKVEIK
notes: as for B17
B21: S-60-2 (antibody, IgG1, V domains shown)
VH: B1 VH with G32V, Y33R, T51A, H54P
VL: not shown
notes: as for B17
B22: S-60-16 (antibody, IgG1, V domains shown)
VH: B1 VH
VL: not shown
notes: as for B17
B23: S-60-15 (antibody, IgG1, V domains shown)
VH: B1 VH
VL: not shown

Target: T1, histidine-tagged human SORT1 (R&D …)
Test: BLI (Octet RED96), antibody captured on anti-human IgG Fc sensor, 20 nM His-tagged human SORT1, 1:1 fit
Protocol: The G1m3 or G1m(f) allotype with L234A/L235A/P331S (“LALAPS” motif) mutations was used as a background (Jefferis R and Lefranc M-P, Mabs, 2009 July-August; 1(4): 332-338). […] Bio-layer interferometry (BLI) data was collected at a rate of 5 Hz at 25° C. on a Pall ForteBio Octet RED96 instrument. Data analysis was performed using ForteBio Data Analysis Software, version 9.0. Standard kinetic buffer (PBS, 0.1 BSA, 0.02 Tween-20, pH 7.2) was used for the assay and for preparing reagents. For all assays, sensor tips were equilibrated in buffer prior to analysis.
Twenty nM histidine-tagged human SORT1 (R&D Systems, Minneapolis, Minn.) was then bound to the captured anti-SORT1 surface (200 s association time, 1200 s dissociation time). […] Full, local fitting using a 1:1 interaction model was applied to extract association and dissociation rate constants (kₐ and kd, respectively) for each N33 mutant. Affinity constants (KD) were calculated from the ratio […]. Different amino acid substitutions were made at N33 and tested for binding to SORT1 in an off-rate screen (under non-stress conditions) as shown in Table 9.

Binder	Kd [nM]	koff [s⁻¹]	kon [M⁻¹ s⁻¹]
B1	0.27	–	–
B2	0.44	0.000247	563000
B3	2.01	~0.00136	676000
B4	0.905	0.000653	609000
B5	1.03	0.000425	412000
B6	0.69	0.000306	445000
B7	2.91	0.000816	280000
B8	0.625	0.000315	493000
B9	0.88	0.00046	524000
B10	0.965	0.000547	563000
B11	1.28	0.000675	511000
B12	0.823	0.00046	548000
B13	0.825	0.000411	498000
B14	0.85	0.000423	495000
B15	0.46	0.000228	491000
B16	0.96	0.000579	601000

Target: T2, human Sortilin (SORT1), full-length …
Test: cell-based or functional assay

Binder	DR EC50 (M): down-regulation of cell surface SORT1, U251 cells, FACS [M]	DR at 0.6 nM antibody (IgG): percent SORT1 downregulation, U251 cells [%]
B17	2.73e-10	50.4
B18	4.47e-10	32.6
B19	5.76e-10	32
B20	4.18e-10	39.6
B21	4.2e-10	40.3

Target: T2, human Sortilin (SORT1), full-length …
Test: FACS on HEK293T cells expressing human SORT1, huIgG1
Protocol: For the binding assay, stable HEK293T cells expressing human SORT1 were harvested by trypsinization, washed in PBS, counted and plated on 96-well u-bottom plates at 1×10⁵ cells/well. The plates were spun at 1,400 rpm for 3 minutes and primary anti-SORT1 or control antibodies were added in FACS buffer (PBS+2 FBS) and incubated on ice for one hour. Cells were subsequently centrifuged as before and washed thrice with FACS buffer. Cells were then incubated with anti-human APC conjugated secondary antibody (BD Biosciences) in FACS buffer for 30 minutes on ice. Cells were again washed three times with FACS buffer and analyzed on a BD FACS Canto or an Intellicyt Flow Cytometer. Binding was measured as median fluorescent intensity (MFI) in the […] channel of the GFP positive cell population.
All antibodies were tested on the huIgG1 backbone.

Binder	Kd [nM]
B17	7.22
B18	0.787
B22	0.78
B19	0.468
B20	0.634
B23	0.56
B21	11

Target: T2, human Sortilin (SORT1), full-length …
Test: cell-based or functional assay
Remark: another data set of the same source

Binder	DR at 1.25 nM antibody (IgG): percent SORT1 downregulation, U251 cells [%]
B22	70.1
B23	60.9
